Starred links: 1 amine or outer side, 2 acyl side, 3 side chain; linkers in the order of their positions; H or OH if unused. Positions of bridges follow the written chain, without caps; N, C: chain ends. Non-standard residues stand in square brackets, D forms with d. No end group written: not given here. *: point of attachment. Yde = (2S)-2-amino-3-[4-[2-(dimethylamino)ethoxy]phenyl]propanoic acid, CN(C)CCOc1ccc(C[C@H](N[*:1])C(=O)[*:2])cc1; Trp(7-Me) = Cc1cccc2c(C[C@H](N)C(=O)O)c[nH]c12; 2Nal = N[C@@H](Cc1ccc2ccccc2c1)C(=O)O; εLys = N[C@@H](CCCCN[*:1])C(=O)[*:2]; Palmitoyl = CCCCCCCCCCCCCCCC(=O)*; 3Pal = N[C@@H](Cc1cccnc1)C(=O)O; Dad = desamino-aspartamic acid; Lys(Me) = CNCCCC[C@H](N)C(=O)O; αMeL = CC(C)C[C@](C)(N)C(=O)O; αMeK = C[C@](N)(CCCCN)C(=O)O; NMeC = CN[C@@H](CS)C(=O)O; Thp = NC1(C(=O)O)CCOCC1; Aib = CC(C)(N)C(=O)O; Ava = NCCCCC(=O)O; Sar = CNCC(=O)O
T1: IL-23 receptor on the surface of HEK-Blue IL-23 cells (UniProt Q5VWK5 24-629, limits assumed)
T1 sequence (looked up): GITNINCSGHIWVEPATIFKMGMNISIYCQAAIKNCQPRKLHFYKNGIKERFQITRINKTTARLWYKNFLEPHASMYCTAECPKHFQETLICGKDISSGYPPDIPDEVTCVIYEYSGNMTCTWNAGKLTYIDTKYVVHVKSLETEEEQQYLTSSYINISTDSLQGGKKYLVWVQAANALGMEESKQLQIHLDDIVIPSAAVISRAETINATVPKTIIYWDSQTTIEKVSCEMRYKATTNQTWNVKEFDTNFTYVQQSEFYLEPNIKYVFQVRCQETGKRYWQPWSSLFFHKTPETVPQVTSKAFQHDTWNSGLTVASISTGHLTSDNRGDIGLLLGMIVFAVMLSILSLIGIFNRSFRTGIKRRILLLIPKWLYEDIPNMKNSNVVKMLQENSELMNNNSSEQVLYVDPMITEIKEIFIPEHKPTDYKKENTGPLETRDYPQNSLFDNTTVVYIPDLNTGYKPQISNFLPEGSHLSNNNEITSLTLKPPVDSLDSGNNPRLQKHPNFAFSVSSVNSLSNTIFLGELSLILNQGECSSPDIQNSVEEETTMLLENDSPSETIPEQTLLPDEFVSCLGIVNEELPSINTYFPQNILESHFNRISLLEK


What follows are binders tested against T1, IL-23 receptor on the surface of … (assay: cell-based or functional assay).

Binder | pSTAT3 (nM)
[Dad]CNT[Trp(7-Me)]QC[Yde][2Nal][Aib]KN[3Pal]K-NH2 (lactam (positions not given here); disulfide 2-7; not fully specified (residue 14, bridges); printed as Dad(§1)-C(@2)-N-T-Wim-Q-C(@2)-Yde-Nal-Aib-K(§1)-N-Pal-K[Sema]-NH2) [Compound of SEQ ID NO: 71] | 2.35
[Dad][NMeC]K[Trp(7-Me)]K(Ac)C[Yde][2Nal][Thp][Lys(Me)]N[3Pal][Sar]-NH2 (lactam 1-10; disulfide 2-6; not fully specified (residue 3); printed as Dad(§1)-Nmc(§3)(@2)-K[aAc](@3)-Wim-K[Ac]-C(@2)-Yde-Nal-Thp-Kme(§1)-N-Pal-Sar-NH2; also: Nmc2 carbonyl joined by amide bond to epsilon-NH2 of Lys3 (branched isopeptide), Lys3 alpha-NH2 acetylated) [Compound of SEQ ID NO: 74] | 0.12
[Dad][NMeC][εLys](Ac)[Trp(7-Me)]LC[Yde][2Nal][αMeL][Lys(Me)]N[3Pal][Sar]-NH2 (lactam (positions not given here); disulfide 2-6; not fully specified (bridges); printed as Dad(§1)-Nmc(§3)(@2)-K[aAc](@3)-Wim-L-C(@2)-Yde-Nal-Mle-Kme(§1)-N-Pal-Sar-NH2; also: Nmc2 carboxyl joined to epsilon-NH2 of Lys3 (isopeptide bond), Lys3 alpha-N acetylated) [Compound of SEQ ID NO: 69] | 3.07
[Ava]C[εLys](Ac)[Trp(7-Me)]K(Ac)C[Yde][2Nal][Aib]EN[3Pal][Sar]-NH2 (lactam N-10; disulfide 2-6; also: Cys2 carboxyl joined to epsilon-NH2 of Lys3 (isopeptide bond), Lys3 alpha-N acetylated) [Compound of SEQ ID NO: 72] | 0.12
XXKXLCXXXXAXX (Dad(§1)-Nmc(§3)(@2)-K[aAc](@3)-Wim-L-C(@2)-Yde-Nal-Mie-Kme(§1)-A-Pal-Sar-NH2) [Compound of SEQ ID NO: 70] | 3.94
[Ava]C[εLys](Ac)[Trp(7-Me)]K(Ac)C[Yde][2Nal][αMeK](Palmitoyl)EN[3Pal][Sar]-NH2 (lactam N-10; disulfide 2-6; also: Cys2 carboxyl joined to epsilon-NH2 of Lys3 (isopeptide bond), Lys3 alpha-N acetylated) [Compound of SEQ ID NO: 67] | 22.6
[Dad]C[εLys](Ac)[Trp(7-Me)]LC[Yde][2Nal][αMeL][Lys(Me)]N[3Pal][Sar]-NH2 (lactam (positions not given here); disulfide 2-6; not fully specified (bridges); printed as Dad(§1)-C(§3)(@2)-K[aAc](@3)-Wim-L-C(@2)-Yde-Nal-Mle-Kme(§1)-N-Pal-Sar-NH2; also: Cys2 bonded to ε-NH2 of Lys3 (isopeptide backbone)) [Compound of SEQ ID NO: 68] | 2.69
[Ava]C[εLys](Ac)[Trp(7-Me)]K(Ac)C[Yde][2Nal][αMeL]EN[3Pal][Sar]-NH2 (lactam N-10; disulfide 2-6; also: Cys2 carboxyl joined to epsilon-NH2 of Lys3 (isopeptide bond), Lys3 alpha-N acetylated) [Compound of SEQ ID NO: 73] | 0.1

Reference: US20260258084A1, “New Peptides as Selective IL-23 Receptor Antagonists” (Sanofi, priority 2022, published 2026)
